The target of assay [1] is T1, JRFL rgp120 (HIV-1 JRFL (clade B), UniProt Q75760, strain). Nature of the assay: cell-based or functional assay.
Assay [2] deals with Env glycoprotein (gp160) of HIV-1 NL4-3, wild type (HIV-1 NL4-3 (clade B), UniProt Q6BC06, strain). In words: cell-based or functional assay.
For assay [3], the target named is T2, rgp120 (R2) (HIV-1 R2).
T2 construct: gp120, the surface subunit of the Env glycoprotein, HIV-1 isolate R2; recombinant; also called native rgp120; coated rgp120; source: bought: Immune Technology Corp or Enzyme LLC
In words: ELISA; direct ELISA; 1 μg/ml rgp120 or rgp140 coated in 0.1 M carbonate buffer pH 9.6, 4°C overnight; antibody 1 h at 37°C; detected with HRP goat anti-human IgG. The settings on record: both partners purified.

Assay [4] deals with T3, CN54 rgp120 (HIV-1 isolate CN54 (97CN54), CRF07_BC, UniProt Q994N8, strain).
T3 construct: gp120, the surface subunit of the Env glycoprotein, HIV-1 isolate CN54 (CRF07_BC); recombinant; also called CRF07_BC (CN54)-derived rgp120; CN54 gp120; source: bought: Immune Technology Corp or Enzyme LLC
Nature of the assay: SPR; BIACORE T200; rgp120 immobilised on CM5 chip by amine coupling (20 μg/ml); antibody in two-fold dilutions injected at 30 μl/min for 3 min; 1:1 Langmuir model, global fit. The settings on record: both partners purified.

For assay [5], the target named is T1, JRFL rgp120. The assay is described as above. The settings on record: both partners purified.

Data on one molecule can be found in article PMC5609902 (Oncotarget, 2017).

The term Kd denotes a measure of binding affinity in units of concentration. Higher therefore signals weaker binding.

B1: Y498 IgG1 (antibody, V domains shown)
VH: KVQLVQSGTELKKPGASGKVSCKASGYTFNSNGLNWVRQAPGQGLEWVGWISGHSDETKHAQNFQGRLTLTTDTSTNTAYMELRSLRSDDTAVYYCARSLLRSLERLMGGTDAFDIWGQGTLVTVSS
VL: not shown
notes: as the VH of m1; as the VL of m1; Full-length IgG1, kappa light chain, made by recloning the Fab chains in the pDR12 vector; also called whole Y498 IgG1; source: 293T, transient transfection, purified from the culture medium (protein A/G sepharose)
For B1, the “neutralisation of the pseudovirus with JRFL Env (Env on the virus, not the rgp120), single cycle infection of TZM-bl cells, IC50” value in assay [1] is greater than 50 µg/mL. Besides, the “neutralisation of the pseudovirus with NL4-3 Env, single cycle infection of TZM-bl cells, IC50” value in assay [2] amounted to 0.61 µg/mL. Also, the binding result in assay [3] was “binds”. Also, the dissociation constant (Kd) in assay [4] was found to be 0.46 nM; in assay [5], 0.86 nM.
